Laboratory results taken from patent US20210246166A1 (Bayer, published 2021).
Numbered stars: 1 amine (or outer) side, 2 acyl side, 3 side chain; on linkers, the order of the positions; unused ones are H or OH. Bridge positions count the residues as written; N and C are the ends. Square brackets hold non-standard residues; d marks the D form. Ends that are not written are not given here. X3 = (1R,3S)‑3‑(Amino)cyclopentanecarboxylic acid, O=C([C@@H]1CC[C@H](N[*:1])C1)[*:2]; X4 = (1S,3R)‑3‑(Amino)cyclopentanecarboxylic acid, O=C([C@H]1CC[C@@H](N[*:1])C1)[*:2]; X9 = (S)‑3‑(1-Pyrrolidine-2-yl)‑propionic acid, O=C(CC[C@@H]1CCCN1[*:1])[*:2]; X8 = (R)‑4‑Amino‑6‑methylheptanoic acid, CC(C)C[C@@H](CCC(=O)[*:2])N[*:1]; X6 = (S)‑(1-Piperidin-3-yl)‑acetic acid, O=C(C[C@@H]1CCCN([*:1])C1)[*:2]; Oic = O=C(O)[C@@H]1C[C@@H]2CCCC[C@@H]2N1; βPro(3S) = O=C([C@H]1CCN([*:1])C1)[*:2]; Pen = CC(C)(S)[C@H](N)C(=O)O; β3hP = O=C(O)C[C@@H]1CCCN1; Sar = CNCC(=O)O

T1: recombinant human MASP1 active protease (amino acids 297-699, C-terminal His Tag) (human, UniProt P48740 297-699)
T1 sequence: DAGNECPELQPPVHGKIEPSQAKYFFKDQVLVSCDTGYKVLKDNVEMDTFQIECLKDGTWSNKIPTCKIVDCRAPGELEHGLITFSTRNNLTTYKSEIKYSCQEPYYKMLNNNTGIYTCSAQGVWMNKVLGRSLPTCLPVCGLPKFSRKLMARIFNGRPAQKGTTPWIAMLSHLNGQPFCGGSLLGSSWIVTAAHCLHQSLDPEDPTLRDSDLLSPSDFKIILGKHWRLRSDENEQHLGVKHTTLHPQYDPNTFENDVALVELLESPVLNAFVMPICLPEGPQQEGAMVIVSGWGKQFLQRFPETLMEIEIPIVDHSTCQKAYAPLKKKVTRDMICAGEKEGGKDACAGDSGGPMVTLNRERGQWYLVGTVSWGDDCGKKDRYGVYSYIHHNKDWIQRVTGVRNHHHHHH


Legend:
[1] = biological target: T1, recombinant human MASP1 active protease …; test: cell-based or functional assay
[2] = biological target: recombinant human MASP2 active protease (amino acids 297-686, C-terminal His Tag) (human, UniProt O00187 297-686); test: cell-based or functional assay
recombinant human MASP2 active protease (amino acids 297-686, C-terminal His Tag), sequence (O00187 other isoform, or with tags, fused parts or gaps limits assumed): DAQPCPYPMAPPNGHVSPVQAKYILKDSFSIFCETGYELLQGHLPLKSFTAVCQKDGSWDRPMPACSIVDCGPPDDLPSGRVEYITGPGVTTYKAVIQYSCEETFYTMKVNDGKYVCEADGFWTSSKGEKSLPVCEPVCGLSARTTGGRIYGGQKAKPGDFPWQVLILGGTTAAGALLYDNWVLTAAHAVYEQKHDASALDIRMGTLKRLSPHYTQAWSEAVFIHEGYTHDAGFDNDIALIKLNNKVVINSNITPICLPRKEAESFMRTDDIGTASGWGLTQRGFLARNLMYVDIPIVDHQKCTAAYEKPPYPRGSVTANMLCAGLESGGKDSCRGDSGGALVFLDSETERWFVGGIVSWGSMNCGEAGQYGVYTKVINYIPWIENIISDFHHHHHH

| Binder | human MASP1 IC50 [1] [nM] | human MASP2 IC50 [2] [nM] |
| --- | --- | --- |
| [Sar]ICSRSLP[Oic]I[Pen]IP[X3]-OH (disulfide 3-11; N-terminus assumed; SMILES CC[C@H](C)[C@H](NC(=O)CNC)C(=O)N[C@H]1CSSC(C)(C)[C@@H](C(=O)N[C@H](C(=O)N2CCC[C@H]2C(=O)N[C@H]2CC[C@@H](C(=O)O)C2)[C@@H](C)CC)NC(=O)[C@H]([C@@H](C)CC)NC(=O)[C@@H]2C[C@@H]3CCCC[C@@H]3N2C(=O)[C@@H]2CCCN2C(=O)[C@H](CC(C)C)NC(=O)[C@H](CO)NC(=O)[C@H](CCCNC(=N)N)NC(=O)[C@H](CO)NC1=O) [Example 449: ((N-Me)G)-IC+SRSLP-(Oic)-I-(Pen)+IP-((1R,3S)-3-(Amino)cyclopentanecarboxylic acid)-OH] | 1.8 | 93 |
| [Sar]ICSRSLP[Oic]I[Pen]IP[X8]-OH (disulfide 3-11; N-terminus assumed; SMILES CC[C@H](C)[C@H](NC(=O)CNC)C(=O)N[C@H]1CSSC(C)(C)[C@@H](C(=O)N[C@H](C(=O)N2CCC[C@H]2C(=O)N[C@H](CCC(=O)O)CC(C)C)[C@@H](C)CC)NC(=O)[C@H]([C@@H](C)CC)NC(=O)[C@@H]2C[C@@H]3CCCC[C@@H]3N2C(=O)[C@@H]2CCCN2C(=O)[C@H](CC(C)C)NC(=O)[C@H](CO)NC(=O)[C@H](CCCNC(=N)N)NC(=O)[C@H](CO)NC1=O) [Example 450: ((N-Me)G)-IC+SRSLP-(Oic)-I-(Pen)+IP-((R)-4-Amino-6-methylheptanoic acid)-OH] | 5.8 | 230 |
| [Sar]ICSRSLP[Oic]I[Pen]IP[X6]-OH (disulfide 3-11; N-terminus assumed; SMILES CC[C@H](C)[C@H](NC(=O)CNC)C(=O)N[C@H]1CSSC(C)(C)[C@@H](C(=O)N[C@H](C(=O)N2CCC[C@H]2C(=O)N2CCC[C@@H](CC(=O)O)C2)[C@@H](C)CC)NC(=O)[C@H]([C@@H](C)CC)NC(=O)[C@@H]2C[C@@H]3CCCC[C@@H]3N2C(=O)[C@@H]2CCCN2C(=O)[C@H](CC(C)C)NC(=O)[C@H](CO)NC(=O)[C@H](CCCNC(=N)N)NC(=O)[C@H](CO)NC1=O) [Example 451: ((N-Me)G)-IC+SRSLP-(Oic)-I-(Pen)+IP-((S)-(1-Piperidin-3-yl)-acetic acid)-OH] | 2.6 | 61 |
| [Sar]ICSRSLP[Oic]I[Pen]IP[X4]-OH (disulfide 3-11; N-terminus assumed; SMILES CC[C@H](C)[C@H](NC(=O)CNC)C(=O)N[C@H]1CSSC(C)(C)[C@@H](C(=O)N[C@H](C(=O)N2CCC[C@H]2C(=O)N[C@@H]2CC[C@H](C(=O)O)C2)[C@@H](C)CC)NC(=O)[C@H]([C@@H](C)CC)NC(=O)[C@@H]2C[C@@H]3CCCC[C@@H]3N2C(=O)[C@@H]2CCCN2C(=O)[C@H](CC(C)C)NC(=O)[C@H](CO)NC(=O)[C@H](CCCNC(=N)N)NC(=O)[C@H](CO)NC1=O) [Example 452: ((N-Me)G)-IC+SRSLP-(Oic)-I-(Pen)+IP-((1S,3R)-3-(Amino)cyclopentanecarboxylic acid)-OH] | 2 | 100 |
| [Sar]ICSRSLP[Oic]I[Pen]IP[X9]-OH (disulfide 3-11; N-terminus assumed; SMILES CC[C@H](C)[C@H](NC(=O)CNC)C(=O)N[C@H]1CSSC(C)(C)[C@@H](C(=O)N[C@H](C(=O)N2CCC[C@H]2C(=O)N2CCC[C@H]2CCC(=O)O)[C@@H](C)CC)NC(=O)[C@H]([C@@H](C)CC)NC(=O)[C@@H]2C[C@@H]3CCCC[C@@H]3N2C(=O)[C@@H]2CCCN2C(=O)[C@H](CC(C)C)NC(=O)[C@H](CO)NC(=O)[C@H](CCCNC(=N)N)NC(=O)[C@H](CO)NC1=O) [Example 453: ((N-Me)G)-IC+SRSLP-(Oic)-I-(Pen)+IP-((S)-3-(1-Pyrrolidine-2-yl)-propionic acid)-OH] | 2.5 | 56 |
| [Sar]ICSRSLP[Oic]I[Pen]IPN-OH (disulfide 3-11; N-terminus assumed; SMILES CC[C@H](C)[C@H](NC(=O)CNC)C(=O)N[C@H]1CSSC(C)(C)[C@@H](C(=O)N[C@H](C(=O)N2CCC[C@H]2C(=O)N[C@@H](CC(N)=O)C(=O)O)[C@@H](C)CC)NC(=O)[C@H]([C@@H](C)CC)NC(=O)[C@@H]2C[C@@H]3CCCC[C@@H]3N2C(=O)[C@@H]2CCCN2C(=O)[C@H](CC(C)C)NC(=O)[C@H](CO)NC(=O)[C@H](CCCNC(=N)N)NC(=O)[C@H](CO)NC1=O) [Example 454: ((N-Me)G)-IC+SRSLP-(Oic)-I-(Pen)+IPN-OH] | 2 | 99 |
| [Sar]ICSRSLP[Oic]I[Pen]IP[β3hP]-OH (disulfide 3-11; N-terminus assumed; SMILES CC[C@H](C)[C@H](NC(=O)CNC)C(=O)N[C@H]1CSSC(C)(C)[C@@H](C(=O)N[C@H](C(=O)N2CCC[C@H]2C(=O)N2CCC[C@H]2CC(=O)O)[C@@H](C)CC)NC(=O)[C@H]([C@@H](C)CC)NC(=O)[C@@H]2C[C@@H]3CCCC[C@@H]3N2C(=O)[C@@H]2CCCN2C(=O)[C@H](CC(C)C)NC(=O)[C@H](CO)NC(=O)[C@H](CCCNC(=N)N)NC(=O)[C@H](CO)NC1=O) [Example 455: ((N-Me)G)-IC+SRSLP-(Oic)-I-(Pen)+IP-(beta-homo-P)-OH] | 2.9 | 85 |
| [Sar]ICSRSLP[Oic]I[Pen]IP[βPro(3S)]-OH (disulfide 3-11; N-terminus assumed; SMILES CC[C@H](C)[C@H](NC(=O)CNC)C(=O)N[C@H]1CSSC(C)(C)[C@@H](C(=O)N[C@H](C(=O)N2CCC[C@H]2C(=O)N2CC[C@H](C(=O)O)C2)[C@@H](C)CC)NC(=O)[C@H]([C@@H](C)CC)NC(=O)[C@@H]2C[C@@H]3CCCC[C@@H]3N2C(=O)[C@@H]2CCCN2C(=O)[C@H](CC(C)C)NC(=O)[C@H](CO)NC(=O)[C@H](CCCNC(=N)N)NC(=O)[C@H](CO)NC1=O) [Example 456: ((N-Me)G)-IC+SRSLP-(Oic)-I-(Pen)+IP-((S)-Pyrrolidine-3-carboxylic acid)-OH] | 1.9 | 110 |
